Experimental data published in publication PMC12720783 (Protein Science : A Publication of the Protein Society, 2025).

B1: LcrG, full length (natural protein)
chain: MKSSHFDEYDKTLKQAELAIADSDHRAKLLQEMCADIGLTPEAVMKIFAGRSAEEIKPAERELLDEIKRQRERQPQHPYDGKRPRKPTMMRGQII
B2: LcrV with a deletion of the N-terminal domain (domain or fragment)
chain: SKLREELAELTAELKIYSVIQAEINKHLSSGGTINIHDKSINLMDKNLYGYTDEEIFKASAEYKILEKMPQTTIQEGETEKKIVSIKNFLESEKKRTGALGNLKDSYSYNKDNNELSHFATTCSDKSRPLNDLVSQKTTQLSDITSRFNSAIEALNRFIQKYDSVMQRLLDDTSGK

Assays:
LcrV, full length = LcrV, full length (Yersinia pseudotuberculosis, UniProt P23994 1-326); assay: ITC; settings: both partners purified
[1] = target: B2; assay: ITC; […] ([…]) […] ([…]) […]; 25°C; 30 mM phosphate buffer, 50 mM NaCl, 1 mM TCEP, pH 7.0; settings: both partners purified
[2] = target: LcrV with a deletion of the N-terminal 23 residues (Yersinia pseudotuberculosis, UniProt P23994 24-326); assay: as above; settings: both partners purified
[3] = target: the molecule itself; assay: […]; 50 mM NaCl, 30 mM phosphate buffer, 1 mM TCEP

Binder | Kd (LcrV, full length) [nM] | Kd [1] [nM] | Kd [2] [nM] | stoichiometry N [3]
B1 | 127 ± 63 | ≤ 10 | 54 ± 8.8 | 
B2 |  |  |  | 3
